In US20210198329A1 (PASTEUR INSTITUTE OF IRAN, published 2021):
Bridges are numbered along the chain shown (N, C = ends). Where no end group is shown, it is not given here.

T1: low-density lipoprotein receptor-related protein 6 (LRP6) (UniProt O75581 20-1370, limits assumed)
T1 construct: also called LRP6 receptor
T1 sequence (looked up): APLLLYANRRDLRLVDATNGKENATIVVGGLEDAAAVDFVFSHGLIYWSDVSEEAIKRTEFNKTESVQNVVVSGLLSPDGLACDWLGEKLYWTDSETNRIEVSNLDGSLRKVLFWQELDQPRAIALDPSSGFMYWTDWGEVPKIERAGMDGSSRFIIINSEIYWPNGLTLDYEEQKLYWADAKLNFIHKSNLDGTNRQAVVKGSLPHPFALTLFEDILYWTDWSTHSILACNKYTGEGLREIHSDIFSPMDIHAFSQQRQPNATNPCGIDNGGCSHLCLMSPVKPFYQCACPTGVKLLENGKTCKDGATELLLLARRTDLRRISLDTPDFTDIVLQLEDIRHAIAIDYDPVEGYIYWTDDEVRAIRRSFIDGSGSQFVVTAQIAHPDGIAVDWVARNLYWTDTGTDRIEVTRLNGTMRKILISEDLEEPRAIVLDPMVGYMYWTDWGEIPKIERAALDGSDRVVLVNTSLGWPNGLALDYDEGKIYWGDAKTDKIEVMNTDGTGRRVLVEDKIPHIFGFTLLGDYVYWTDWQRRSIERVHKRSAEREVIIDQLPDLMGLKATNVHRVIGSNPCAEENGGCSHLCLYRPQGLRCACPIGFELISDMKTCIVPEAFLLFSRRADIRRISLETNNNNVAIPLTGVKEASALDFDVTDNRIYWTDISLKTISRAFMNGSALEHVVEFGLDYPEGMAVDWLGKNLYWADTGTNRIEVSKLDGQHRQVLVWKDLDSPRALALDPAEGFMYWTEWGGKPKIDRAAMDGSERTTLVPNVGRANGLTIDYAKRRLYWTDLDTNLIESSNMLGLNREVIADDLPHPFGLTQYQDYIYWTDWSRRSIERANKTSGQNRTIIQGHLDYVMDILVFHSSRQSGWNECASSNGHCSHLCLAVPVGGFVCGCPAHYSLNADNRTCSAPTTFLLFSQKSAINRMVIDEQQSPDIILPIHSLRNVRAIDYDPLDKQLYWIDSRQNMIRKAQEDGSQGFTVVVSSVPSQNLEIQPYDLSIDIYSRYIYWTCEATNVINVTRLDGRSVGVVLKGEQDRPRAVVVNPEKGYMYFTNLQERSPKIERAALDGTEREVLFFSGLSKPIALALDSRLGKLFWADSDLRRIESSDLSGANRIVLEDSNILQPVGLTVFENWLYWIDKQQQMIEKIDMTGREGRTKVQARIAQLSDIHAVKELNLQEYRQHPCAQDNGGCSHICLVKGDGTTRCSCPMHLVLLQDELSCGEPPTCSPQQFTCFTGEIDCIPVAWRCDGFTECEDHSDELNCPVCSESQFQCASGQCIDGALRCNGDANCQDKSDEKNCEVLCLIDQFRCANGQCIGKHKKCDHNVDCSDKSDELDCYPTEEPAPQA

B1: pep-2 (SEQ ID NO: 2) (peptide)
peptide: QVCTKHRRKGSHGLEIFQRCY
notes: Held on nanoparticles as the ligand in the LSPR assay
B2: pep-4 (SEQ ID NO: 4) (peptide)
peptide: CCARHFWSKIC
modifications: disulfide 1-11
notes: Made by synthesis; Held on nanoparticles as the ligand in the LSPR assay

Target: T1, low-density lipoprotein …
Experiment: LSPR spectroscopy; peptide on nanoparticles as ligand, LRP6 as analyte at 10^-9 to 10^-6 M; sigmoid fit of plasmon shift
Protocol: In this example, the binding affinity of exemplary peptides to the LRP6 receptor was determined by performing localized surface plasmon resonance (LSPR) spectroscopy. In the LSPR spectroscopy, the response of free electrons to nanoparticles in the presence of biomolecules may be observed as changes in wavelength and intensity of absorption. A stabilized compound on the nanoparticles' surface is called a ligand, and a second free compound is called an analyte. […] Also, the LRP6 was used as the analyte because of its negative surface charge. By adding the LRP6 as the analyte in the concentration ranges of 10⁻⁹ M to 10⁻⁶ M, the wavelength changes (plasmon shift) were recorded for each concentration. In the end, the KD values of exemplary peptides were determined by calculating the sigmoid curve of wavelength changes in terms of LRP6 concentration.

| Binder | Kd |
| --- | --- |
| B1 | ~0.47 µM |
| B2 | ~0.55 µM |
